Results taken from patent EP4670793A1.

Target: human C1q (human) (UniProt P02745)
Experiment: C1q (50 nM) with 100 nM antibody on TNFa-activated HUVECs; bound C1q detected with biotinylated polyclonal anti-C1q and imaging; normalised to isotype IgG

Sequence of UniProt P02745 (P02745 23-245, chain 1 of 3): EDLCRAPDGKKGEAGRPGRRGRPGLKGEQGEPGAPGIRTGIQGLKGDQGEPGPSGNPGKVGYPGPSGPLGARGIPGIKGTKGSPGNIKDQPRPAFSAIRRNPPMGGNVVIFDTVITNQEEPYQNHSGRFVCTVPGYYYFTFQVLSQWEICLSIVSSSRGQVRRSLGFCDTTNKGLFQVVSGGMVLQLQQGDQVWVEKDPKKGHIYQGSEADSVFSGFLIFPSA
Sequence of UniProt P02745 (chain, as listed by the source, chain 2 of 3): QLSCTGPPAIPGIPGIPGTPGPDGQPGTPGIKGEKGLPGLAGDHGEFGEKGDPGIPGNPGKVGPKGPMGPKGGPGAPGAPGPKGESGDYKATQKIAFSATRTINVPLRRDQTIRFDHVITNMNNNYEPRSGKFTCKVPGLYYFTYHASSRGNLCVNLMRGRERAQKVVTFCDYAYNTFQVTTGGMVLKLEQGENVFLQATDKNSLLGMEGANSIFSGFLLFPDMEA
Sequence of UniProt P02745 (chain, as listed by the source, chain 3 of 3): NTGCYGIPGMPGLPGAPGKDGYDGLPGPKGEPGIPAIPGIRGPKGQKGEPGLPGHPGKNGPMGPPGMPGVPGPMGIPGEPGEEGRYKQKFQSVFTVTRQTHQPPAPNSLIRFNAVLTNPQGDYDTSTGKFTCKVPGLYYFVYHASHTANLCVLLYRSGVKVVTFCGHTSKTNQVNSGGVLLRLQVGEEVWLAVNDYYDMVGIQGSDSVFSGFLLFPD

“control antibody comprising murine heavy and light chain variable regions of the anti-C1q antibody M1 (Annexon Biosciences) with hIgG1 and kappa constant regions” gave a % inhibition of binding of C1q to activated endothelial cells of 94%.
